We go through 1 protein from FireProtDB (doi:10.1111/j.1399-3011.1982.tb00898.x).

The conditions of the data set: Escherichia coli (strain K12), Thermal, DSC, whole UniProt chain shown.
Where [1] appears, read: pH 7, 25 °C, potassium phosphate 1 mM, reversible: yes(<50%).
Setting [2] is: pH 7, potassium phosphate 1 mM, reversible: yes(<50%).
[3] abbreviates: pH 9.3, 25 °C, sodium tetraborate 1 mM, reversible: yes(>70%).
[4] abbreviates: pH 9.3, sodium tetraborate 1 mM, reversible: yes(>70%).

What is called Tm is the temperature at which the thermal transition is half complete.

B1: Tryptophan synthase alpha chain wild type, P0A877 (protein)
chain: MERYESLFAQLKERKEGAFVPFVTLGDPGIEQSLKIIDTLIEAGADALELGIPFSDPLADGPTIQNATLRAFAAGVTPAQCFEMLALIRQKHPTIPIGLLMYANLVFNKGIDEFYAQCEKVGVDSVLVADVPVEESAPFRQAALRHNVAPIFICPPNADDDLLRQIASYGRGYTYLLSRAGVTGAENRAALPLNHLVAKLKEYNAAPPLQGFGISAPDQVKAAIDAGAAGAISGSAIVKIIEQHINEPEKMLAALKVFVQPMKAATRS
Regarding B1, the “heat capacity change of unfolding” value runs as follows: under setting [1], 2.9 kcal/mol/K; under setting [2], 2.9 kcal/mol/K; under setting [3], 2.9 kcal/mol/K; under setting [4], 2.9 kcal/mol/K. Also, the unfolding free energy reads like this: under setting [1], 8.4 kcal/mol; under setting [3], 5.8 kcal/mol. In addition, the Tm runs as follows: under setting [2], 62.4 °C; under setting [4], 54.3 °C.
